Test results: the Immune Epitope Database (IEDB)

Columns and labels:
HLA-B*15:03 = assay: IEDB peptide-MHC binding, purified MHC/competitive/radioactivity; filed as Kd, often an IC50 or EC50 that approximates it; ≥ and ≤ were set here for values at or beyond the usual limits of such assays
HLA-A*24:03 = assay: IEDB peptide-MHC binding, purified MHC/direct/fluorescence; filed as Kd, often an IC50 or EC50 that approximates it; ≥ and ≤ were set here for values at or beyond the usual limits of such assays; details: source organism: Mammarenavirus machupoense
HLA-A*23:01 = assay: IEDB peptide-MHC binding, purified MHC/competitive/radioactivity; filed as Kd, often an IC50 or EC50 that approximates it; ≥ and ≤ were set here for values at or beyond the usual limits of such assays; details: source organism: Mammarenavirus juninense
HLA-A*24:02 = assay: as above; details: source organism: Mammarenavirus juninense
HLA-A*29:02 = assay: as above; details: source organism: Mammarenavirus juninense
HLA-A*02:01 = assay: IEDB peptide-MHC binding, purified MHC/competitive/fluorescence; filed as Kd, often an IC50 or EC50 that approximates it; ≥ and ≤ were set here for values at or beyond the usual limits of such assays; details: source organism: Vaccinia virus Copenhagen
HLA-A*03:01 = assay: IEDB peptide-MHC binding, purified MHC/competitive/radioactivity; filed as Kd, often an IC50 or EC50 that approximates it; ≥ and ≤ were set here for values at or beyond the usual limits of such assays
HLA-A*11:01 = assay: as above
HLA-A*31:01 = assay: as above
HLA-A*33:01 = assay: as above
HLA-A*68:01 = assay: as above
HLA-B*07:02 = assay: as above
HLA-B*35:01 = assay: as above
HLA-B*51:01 = assay: as above
HLA-B*53:01 = assay: as above
HLA-B*54:01 = assay: as above
HLA-B*15:17 = assay: IEDB peptide-MHC binding, purified MHC/direct/fluorescence; filed as Kd, often an IC50 or EC50 that approximates it; ≥ and ≤ were set here for values at or beyond the usual limits of such assays
HLA-B*57:01 = assay: as above
HLA-B*58:01 = assay: as above
HLA-A*32:01 = assay: IEDB peptide-MHC binding, purified MHC/competitive/radioactivity; filed as Kd, often an IC50 or EC50 that approximates it; ≥ and ≤ were set here for values at or beyond the usual limits of such assays
HLA-A*30:01 = assay: as above; details: source organism: Vaccinia virus WR
HLA-B*08:01 = assay: as above; details: source organism: Vaccinia virus WR
HLA-B*15:01 = assay: as above
[1] = source organism: Vaccinia virus WR
[2] = source organism: Vaccinia virus Copenhagen
[3] = source organism: Lake Victoria marburgvirus - Popp
[4] = source organism: Marburg virus - Musoke, Kenya, 1980
[5] = source organism: Brucella melitensis
[6] = source organism: Mammarenavirus lassaense
[7] = source organism: Mammarenavirus guanaritoense

## FAAMIIRSF
HLA-B*15:03; [1]
  Kd: 1.33 nM

## LYTVKYPNL
HLA-A*24:03
  Kd: 30.1 nM
HLA-A*23:01
  Kd: 230 nM
HLA-A*24:02
  Kd: 2430 nM
HLA-A*29:02
  Kd: ≥ 23500 nM

## FLIVSLCPT
HLA-A*02:01
  Kd: 0.3 nM
HLA-A*03:01; [2]
  Kd: 2590 nM
HLA-A*11:01; [2]
  Kd: ≥ 48100 nM
HLA-A*31:01; [2]
  Kd: 3230 nM
HLA-A*33:01; [2]
  Kd: 6550 nM
HLA-A*68:01; [2]
  Kd: 5310 nM
HLA-B*07:02; [2]
  Kd: 12000 nM
HLA-B*35:01; [2]
  Kd: 16000 nM
HLA-B*51:01; [2]
  Kd: ≥ 28600 nM
HLA-B*53:01; [2]
  Kd: 6210 nM
HLA-B*54:01; [2]
  Kd: 359 nM

## LPVYFGSVF
HLA-B*15:03; [1]
  Kd: 123 nM

## KSPDVHEDF
HLA-B*15:17; [3]
  Kd: ≥ 20000 nM
HLA-B*57:01; [3]
  Kd: 566 nM
HLA-B*58:01; [3]
  Kd: 921 nM

## VLFLQQSIF
HLA-B*15:03; [1]
  Kd: 0.61 nM

## MTVVSAVHF
HLA-A*32:01; [1]
  Kd: 1940 nM
HLA-B*15:03; [1]
  Kd: 278 nM

## SSNAKNSEW
HLA-B*15:17; [4]
  Kd: 2.7 nM
HLA-B*57:01; [4]
  Kd: 135 nM
HLA-B*58:01; [4]
  Kd: 69.9 nM

## ILMIFISSF
HLA-A*32:01; [1]
  Kd: 86.7 nM
HLA-B*15:03; [1]
  Kd: 11.9 nM

## KAGVRGWFL
HLA-B*15:17; [5]
  Kd: 2280 nM
HLA-B*57:01; [5]
  Kd: 71.5 nM
HLA-B*58:01; [5]
  Kd: 225 nM

## FQRKPFNNI
HLA-B*15:03; [1]
  Kd: 8.9 nM

## NLYSFTIVF
HLA-B*15:03; [2]
  Kd: 31.2 nM

## ILMIFISSFL
HLA-A*03:01; [1]
  Kd: 397 nM
HLA-A*11:01; [1]
  Kd: 1780 nM
HLA-A*31:01; [1]
  Kd: 625 nM
HLA-A*33:01; [1]
  Kd: 966 nM
HLA-A*68:01; [1]
  Kd: 989 nM
HLA-B*07:02; [1]
  Kd: 16800 nM
HLA-B*35:01; [1]
  Kd: 3050 nM
HLA-B*51:01; [1]
  Kd: 4910 nM
HLA-B*53:01; [1]
  Kd: 1250 nM
HLA-B*54:01; [1]
  Kd: 1500 nM

## LSVPAAIMM
HLA-B*15:03; [1]
  Kd: 68.5 nM

## KSSLNISGY
HLA-B*15:17; [6]
  Kd: 1.6 nM
HLA-B*57:01; [6]
  Kd: 574 nM
HLA-B*58:01; [6]
  Kd: 37.7 nM

## RAYSVPETF
HLA-B*15:17; [5]
  Kd: ≤ 1 nM
HLA-B*57:01; [5]
  Kd: 41.8 nM
HLA-B*58:01; [5]
  Kd: 14.5 nM

## KTKETNRIY
HLA-A*30:01
  Kd: 10.7 nM
HLA-B*15:03; [1]
  Kd: 172 nM

## KWKYENPCK
HLA-A*30:01
  Kd: 15 nM
HLA-A*32:01; [1]
  Kd: ≥ 59000 nM
HLA-B*08:01
  Kd: ≥ 50900 nM
HLA-B*15:01; [1]
  Kd: ≥ 78100 nM
HLA-B*15:03; [1]
  Kd: 296 nM

## SATYATVPF
HLA-B*15:03; [2]
  Kd: 12 nM

## IQHNFTQIA
HLA-B*15:03; [1]
  Kd: 0.251 nM

## NPLVITTSV
HLA-B*07:02; [7]
  Kd: 1330 nM
HLA-B*35:01; [7]
  Kd: 5530 nM
HLA-B*51:01; [7]
  Kd: 381 nM
HLA-B*53:01; [7]
  Kd: 14200 nM
HLA-B*54:01; [7]
  Kd: 79.8 nM

## LPSLIKTILA
HLA-B*07:02; [1]
  Kd: 1520 nM
HLA-B*35:01; [1]
  Kd: 2230 nM
HLA-B*51:01; [1]
  Kd: 11000 nM
HLA-B*53:01; [1]
  Kd: 1960 nM
HLA-B*54:01; [1]
  Kd: 1.54 nM

## TPVEIVVDM
HLA-B*07:02; [6]
  Kd: 16700 nM
HLA-B*35:01; [6]
  Kd: 4.6 nM
HLA-B*51:01; [6]
  Kd: 9820 nM
HLA-B*53:01; [6]
  Kd: 158 nM
HLA-B*54:01; [6]
  Kd: ≥ 78100 nM

## LQNSVVLQF
HLA-A*32:01; [2]
  Kd: 7.33 nM
HLA-B*15:01; [2]
  Kd: 1.51 nM
HLA-B*15:03; [2]
  Kd: 6.22 nM

## DPDHYKDYAF
HLA-B*07:02; [1]
  Kd: ≥ 69600 nM
HLA-B*35:01; [1]
  Kd: 894 nM
HLA-B*51:01; [1]
  Kd: ≥ 69600 nM
HLA-B*53:01; [1]
  Kd: 3440 nM
HLA-B*54:01; [1]
  Kd: 17300 nM

## FPAIFSAEVL
HLA-B*07:02; [6]
  Kd: 1380 nM
HLA-B*35:01; [6]
  Kd: 55.7 nM
HLA-B*51:01; [6]
  Kd: 9910 nM
HLA-B*53:01; [6]
  Kd: 332 nM
HLA-B*54:01; [6]
  Kd: 523 nM

## FQTVNFNNA
HLA-A*30:01
  Kd: 115 nM
HLA-A*32:01; [1]
  Kd: ≥ 50900 nM
HLA-B*08:01
  Kd: 16000 nM
HLA-B*15:01; [1]
  Kd: 8180 nM
HLA-B*15:03; [1]
  Kd: 305 nM

## FYSSFVQTF
HLA-B*15:03; [1]
  Kd: 38.8 nM
